Assay results reported in PMC6445466.

Experiments:
[1] = target: BXK32-C (BBK32-C E308K-Q319K-E324Q) (Borrelia burgdorferi strain B31) (UniProt O50835); assay: SPR; Biacore T200, 25°C; borrelial protein immobilised by amine coupling (CMD200M chip); C1 as analyte, two-fold dilution series 0 to 150 nM, 2 min association, 3 min dissociation; HBS-T (20 mM HEPES pH 7.3, 140 mM NaCl, 0.005% Tween-20) with 5 mM CaCl2; 1:1 kinetic fit; triplicate
[2] = target: BBK32(206-348) (residues 206-348, B. burgdorferi strain B31) (Borrelia burgdorferi strain B31) (UniProt O50835); assay: as above
[3] = target: BBK32-C (residues 206-354, B. burgdorferi strain B31) (Borrelia burgdorferi strain B31) (UniProt O50835); assay: as above
[4] = target: BAD16-C (residues 204-352, B. afzelii strain PGau) (Borrelia afzelii strain PGau); assay: as above
[5] = target: human C1r, full-length enzyme (human) (UniProt P00736)
Sequence of human C1r, full-length enzyme (human) (P00736 18-705): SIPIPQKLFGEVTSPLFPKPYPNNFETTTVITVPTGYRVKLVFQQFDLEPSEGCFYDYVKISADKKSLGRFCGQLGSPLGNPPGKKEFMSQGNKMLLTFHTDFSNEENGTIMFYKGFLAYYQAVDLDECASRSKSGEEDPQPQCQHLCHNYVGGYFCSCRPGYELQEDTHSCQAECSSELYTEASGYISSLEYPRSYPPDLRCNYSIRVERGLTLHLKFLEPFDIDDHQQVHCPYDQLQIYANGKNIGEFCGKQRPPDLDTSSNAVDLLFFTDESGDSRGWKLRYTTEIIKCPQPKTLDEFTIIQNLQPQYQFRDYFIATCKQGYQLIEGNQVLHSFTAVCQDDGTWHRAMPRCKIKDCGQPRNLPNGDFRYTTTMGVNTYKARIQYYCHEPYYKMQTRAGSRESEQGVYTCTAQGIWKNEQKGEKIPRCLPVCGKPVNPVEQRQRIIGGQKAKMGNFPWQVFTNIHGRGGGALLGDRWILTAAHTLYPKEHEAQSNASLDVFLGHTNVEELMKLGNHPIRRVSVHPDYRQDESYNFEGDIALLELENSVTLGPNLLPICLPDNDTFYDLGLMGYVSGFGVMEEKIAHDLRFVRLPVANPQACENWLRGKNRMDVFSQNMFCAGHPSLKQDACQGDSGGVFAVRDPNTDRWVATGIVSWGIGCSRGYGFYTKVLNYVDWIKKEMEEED

Substance | Kd [1] | koff [1] | Kd [2] | koff [2] | Kd [3] | koff [3] | Kd [4] | IC50 of C3b deposition, classical pathway-specific ELISA with normal human serum [5] | IC50 of MAC deposition, classical pathway-specific ELISA with normal human serum [5] | IC50 of classical pathway hemolysis of sensitized sheep red blood cells by human serum [5]
human C1 complex (from UniProt P02745 23-245; P02746 28-253; P02747 29-245) | 4.7 nM | 3.8e-05 s⁻¹ | 5.6 nM | 0.00054 s⁻¹ | 6 nM | 0.0005 s⁻¹ | 5.4 nM |  |  | 
BAD16-C (residues 204-352, B. afzelii strain PGau) (domain or fragment) |  |  |  |  |  |  |  | 9.6 nM | 5.9 nM | 55 nM
